Results on one molecule are retold here after patent WO2011147834A1 (dated 2011).

Where “and” joins values, the source holds several entries; their conditions need not be identical. Equal entries are not always repeated.

Experiment [1] addresses T1, rabbit CD19 (rabbit, UniProt G1TWR4 20-543).
T1 construct: whole, on cells
T1 sequence: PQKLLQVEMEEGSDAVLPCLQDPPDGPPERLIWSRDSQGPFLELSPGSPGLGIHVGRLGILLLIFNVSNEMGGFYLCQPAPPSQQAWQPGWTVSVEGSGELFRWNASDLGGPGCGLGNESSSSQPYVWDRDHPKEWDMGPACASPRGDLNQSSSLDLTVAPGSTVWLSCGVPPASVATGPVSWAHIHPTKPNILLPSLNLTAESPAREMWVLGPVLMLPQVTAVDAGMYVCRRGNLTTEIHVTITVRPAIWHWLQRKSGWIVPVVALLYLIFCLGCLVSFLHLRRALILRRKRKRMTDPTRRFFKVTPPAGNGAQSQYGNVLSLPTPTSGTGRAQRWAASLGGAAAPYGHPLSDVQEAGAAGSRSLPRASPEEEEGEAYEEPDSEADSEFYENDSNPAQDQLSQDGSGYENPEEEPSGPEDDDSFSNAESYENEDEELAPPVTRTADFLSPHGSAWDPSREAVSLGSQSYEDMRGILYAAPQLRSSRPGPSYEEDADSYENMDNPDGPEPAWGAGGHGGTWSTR
Put plainly: FACS on B-cells of the respective species.

For experiment [2], the target named is T2, cynomolgus CD19 (cynomolgus, UniProt A0A2K5W8L9 20-557).
T2 construct: whole, on cells
T2 sequence: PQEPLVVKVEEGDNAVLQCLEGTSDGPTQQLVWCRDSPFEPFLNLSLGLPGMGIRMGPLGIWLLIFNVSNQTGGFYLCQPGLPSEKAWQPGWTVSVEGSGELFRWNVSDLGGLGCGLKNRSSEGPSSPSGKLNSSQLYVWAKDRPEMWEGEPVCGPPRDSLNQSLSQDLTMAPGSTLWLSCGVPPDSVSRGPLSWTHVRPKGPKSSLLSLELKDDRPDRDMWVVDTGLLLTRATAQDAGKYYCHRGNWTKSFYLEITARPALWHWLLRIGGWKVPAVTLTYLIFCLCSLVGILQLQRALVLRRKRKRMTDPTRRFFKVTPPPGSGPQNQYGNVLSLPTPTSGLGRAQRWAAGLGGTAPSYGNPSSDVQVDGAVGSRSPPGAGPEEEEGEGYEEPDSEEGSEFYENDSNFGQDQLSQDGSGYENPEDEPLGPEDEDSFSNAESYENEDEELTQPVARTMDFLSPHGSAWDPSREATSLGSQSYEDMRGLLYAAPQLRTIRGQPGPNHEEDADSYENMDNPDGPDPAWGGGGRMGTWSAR
Kind of experiment: FACS on B-cells of the respective species.

The target of experiment [3] is T3, mouse CD19 (mouse, UniProt P25918 19-547).
T3 construct: whole, on cells
T3 sequence (looked up): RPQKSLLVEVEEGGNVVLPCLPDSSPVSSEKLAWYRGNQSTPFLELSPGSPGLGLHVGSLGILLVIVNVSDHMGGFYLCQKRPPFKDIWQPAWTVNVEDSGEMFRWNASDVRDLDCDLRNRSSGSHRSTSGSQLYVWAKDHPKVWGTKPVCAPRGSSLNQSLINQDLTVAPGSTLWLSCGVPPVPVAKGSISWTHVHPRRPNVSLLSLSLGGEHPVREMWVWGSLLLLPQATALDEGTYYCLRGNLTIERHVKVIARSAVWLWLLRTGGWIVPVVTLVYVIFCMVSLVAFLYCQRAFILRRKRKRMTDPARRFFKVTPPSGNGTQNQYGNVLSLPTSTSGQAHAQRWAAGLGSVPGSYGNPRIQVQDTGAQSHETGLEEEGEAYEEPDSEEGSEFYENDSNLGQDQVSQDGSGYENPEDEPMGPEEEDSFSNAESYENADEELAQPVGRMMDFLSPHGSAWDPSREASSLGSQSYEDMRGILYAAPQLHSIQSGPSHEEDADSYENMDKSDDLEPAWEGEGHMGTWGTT
Kind of experiment: FACS on B-cells of the respective species.

Experiment [4] has as its target T4, human B-lymphocyte antigen CD19 (human, UniProt P15391 20-556).
T4 sequence (looked up): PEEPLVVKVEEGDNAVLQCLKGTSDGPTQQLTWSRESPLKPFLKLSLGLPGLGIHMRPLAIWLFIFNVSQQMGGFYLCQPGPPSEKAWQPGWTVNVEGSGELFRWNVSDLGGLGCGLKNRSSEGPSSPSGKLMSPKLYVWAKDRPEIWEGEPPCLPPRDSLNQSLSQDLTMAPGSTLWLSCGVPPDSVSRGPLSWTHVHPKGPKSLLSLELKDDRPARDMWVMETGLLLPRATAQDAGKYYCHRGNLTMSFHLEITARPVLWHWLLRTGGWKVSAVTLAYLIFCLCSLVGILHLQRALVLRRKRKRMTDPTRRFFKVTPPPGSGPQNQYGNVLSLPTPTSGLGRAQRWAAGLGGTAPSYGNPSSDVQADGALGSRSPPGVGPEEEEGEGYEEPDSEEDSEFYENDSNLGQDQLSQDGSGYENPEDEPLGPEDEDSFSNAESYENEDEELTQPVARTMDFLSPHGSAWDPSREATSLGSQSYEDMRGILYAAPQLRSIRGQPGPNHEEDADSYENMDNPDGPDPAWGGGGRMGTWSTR
Kind of experiment: cell-based or functional assay.

The target in experiment [5] is T4, human B-lymphocyte antigen CD19. Kind of experiment: FACS binding on Daudi cells, goat anti-mouse RPE detection. For orientation: In flow cytometry, cells or beads pass a laser one at a time.
The target is the same in experiment [6]. Put plainly: cell ELISA on human CD19-transfected NIH3T3 cells against untransfected NIH3T3 cells. (In general: In an ELISA, binding on a coated surface is turned into a signal by an enzyme label.)

B1: Mab381 (antibody, V domains shown)
VH: QVQLQQSGAELVRPGSSMKISCKASGYAFSSYWMNWVKQRPGQGLEWIGQIYPGDGDINYSGKFKGKVTLTADKSSSTAYMQLSSLTSEDSAVYFCARTITTVVGYVMDYWGQGTSVTVSS
VL: DIVMTQSHKFMSTSVGDRVSITCKASQDVGTVVAWYQQKPGQSPKLLIYWASTRHTGVPDRFTGSGSGTDFTLTISNVQSEDLADYFCQQYSSYPYTFGGGTKLEIKR
notes: Murine monoclonal antibody purified from hybridoma 8C3
In general, EC50 refers to the concentration that produces a half-maximal response. Read a high EC50 as lower potency in that assay. In the case of B1, the binding result in experiment [1], in experiment [2] and in experiment [3] was “no binding” throughout. Also, the “EC50 of inhibition of Ca2+ influx in anti-IgM activated Ramos cells” value in experiment [4] was 0.37 nM and 56 ng/ml. The same molecule registered an EC50 in experiment [5] of 1.45 nM. The “ratio OD NIH3T3 CD 19 to OD NIH3T3 untransfected” value in experiment [6] came out at 11.4.
